Assay [1] concerns the target T1, Rat SLIT3-N (rat, UniProt O88280 34-1119, limits assumed).
T1 construct: domain: SLIT3-N; d2-labelled in the HTRF assay
T1 sequence (looked up): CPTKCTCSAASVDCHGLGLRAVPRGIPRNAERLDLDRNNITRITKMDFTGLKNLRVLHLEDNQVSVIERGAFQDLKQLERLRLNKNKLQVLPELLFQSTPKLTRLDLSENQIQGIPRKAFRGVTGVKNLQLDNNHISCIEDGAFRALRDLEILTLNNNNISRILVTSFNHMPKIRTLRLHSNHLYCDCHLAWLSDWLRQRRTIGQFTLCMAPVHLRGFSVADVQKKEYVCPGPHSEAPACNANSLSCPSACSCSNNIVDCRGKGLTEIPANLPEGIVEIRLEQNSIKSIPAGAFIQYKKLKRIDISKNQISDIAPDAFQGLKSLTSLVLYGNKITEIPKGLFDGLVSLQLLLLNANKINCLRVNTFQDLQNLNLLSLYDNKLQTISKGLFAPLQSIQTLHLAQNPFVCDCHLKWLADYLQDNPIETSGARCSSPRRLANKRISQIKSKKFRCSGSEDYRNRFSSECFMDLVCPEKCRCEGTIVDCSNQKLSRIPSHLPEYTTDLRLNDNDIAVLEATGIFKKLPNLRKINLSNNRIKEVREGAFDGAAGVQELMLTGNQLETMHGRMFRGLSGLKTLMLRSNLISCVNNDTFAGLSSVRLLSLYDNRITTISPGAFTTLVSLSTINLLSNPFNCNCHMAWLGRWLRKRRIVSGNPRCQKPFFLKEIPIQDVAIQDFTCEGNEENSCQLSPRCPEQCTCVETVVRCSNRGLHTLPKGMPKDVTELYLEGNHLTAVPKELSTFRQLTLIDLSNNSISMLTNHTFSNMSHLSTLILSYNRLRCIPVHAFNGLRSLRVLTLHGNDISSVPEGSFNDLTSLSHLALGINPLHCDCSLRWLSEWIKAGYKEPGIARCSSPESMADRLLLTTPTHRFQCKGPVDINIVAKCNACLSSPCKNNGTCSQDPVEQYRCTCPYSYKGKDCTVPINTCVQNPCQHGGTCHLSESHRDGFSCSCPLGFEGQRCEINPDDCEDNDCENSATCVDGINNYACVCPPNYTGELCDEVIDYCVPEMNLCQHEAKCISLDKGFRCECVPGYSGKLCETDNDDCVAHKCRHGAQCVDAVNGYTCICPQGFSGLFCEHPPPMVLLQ
The assay can be described thus: HTRF competition: d2-labelled rat SLIT3-N binding to human ROBO2 on HEK293 cells; geometric mean, n=3. As for the experimental part: (§1) After incubation, fluorescence at 665 nm and 620 nm was measured on an Envision multilabel plate reader. The HTRF Ratio was calculated as follows: fluorescence at 665 nm/fluorescence at 620 nm×10,000. […] The IC₅₀ for each SLITx-N was determined using an 11-point, 4-fold dilution series with a top concentration of 4000 nM.
On the technique in general: Time-resolved FRET reads energy transfer from a long-lived donor to a nearby acceptor.

Assay [2] addresses T2, Human SLIT2-N (human, UniProt O94813 31-1121, limits assumed).
T2 construct: domain: SLIT2-N (N terminal fragment); Soluble analyte in SPR, d2-labelled in HTRF, overexpressed on HEK293 cells in flow cytometry; also called human SLIT2-N (N terminal fragment)
T2 sequence (looked up): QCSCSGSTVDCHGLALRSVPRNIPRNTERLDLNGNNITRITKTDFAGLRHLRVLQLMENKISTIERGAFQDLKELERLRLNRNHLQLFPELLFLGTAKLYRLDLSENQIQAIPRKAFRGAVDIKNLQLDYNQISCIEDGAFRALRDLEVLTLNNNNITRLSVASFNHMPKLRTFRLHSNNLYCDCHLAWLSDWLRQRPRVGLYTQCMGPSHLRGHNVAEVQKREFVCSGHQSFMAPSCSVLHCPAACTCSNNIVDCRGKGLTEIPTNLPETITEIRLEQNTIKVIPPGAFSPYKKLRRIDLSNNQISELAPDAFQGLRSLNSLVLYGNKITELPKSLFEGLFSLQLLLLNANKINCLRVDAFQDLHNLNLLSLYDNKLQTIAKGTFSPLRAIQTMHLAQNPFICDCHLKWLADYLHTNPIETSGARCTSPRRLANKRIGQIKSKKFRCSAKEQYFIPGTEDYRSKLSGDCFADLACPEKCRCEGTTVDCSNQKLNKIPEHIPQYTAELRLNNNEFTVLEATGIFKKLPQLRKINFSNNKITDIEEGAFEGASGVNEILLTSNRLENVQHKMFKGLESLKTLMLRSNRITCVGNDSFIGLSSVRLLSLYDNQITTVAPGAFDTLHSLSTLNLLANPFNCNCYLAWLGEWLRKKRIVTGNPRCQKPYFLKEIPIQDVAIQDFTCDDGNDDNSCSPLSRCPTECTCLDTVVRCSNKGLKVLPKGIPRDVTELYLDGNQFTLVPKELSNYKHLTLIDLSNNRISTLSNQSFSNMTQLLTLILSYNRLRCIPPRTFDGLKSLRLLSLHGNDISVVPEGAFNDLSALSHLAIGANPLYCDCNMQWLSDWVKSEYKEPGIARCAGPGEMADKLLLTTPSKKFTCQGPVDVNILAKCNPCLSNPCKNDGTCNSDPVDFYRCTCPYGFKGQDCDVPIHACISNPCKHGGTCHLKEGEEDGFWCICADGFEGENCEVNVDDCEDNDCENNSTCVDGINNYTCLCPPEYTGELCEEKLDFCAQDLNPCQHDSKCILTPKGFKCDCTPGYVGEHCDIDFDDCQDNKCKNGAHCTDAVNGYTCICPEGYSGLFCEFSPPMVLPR
Kind of assay: HTRF competition: d2-labelled human SLIT2-N binding to human ROBO2 on HEK293 cells (competitor: cell surface ROBO2). As for the experimental part: as §1

B1: ROBO2-Fc 2.2 (Fc fusion)
chain: SRLRQEDFPPRIVEHPSDVIVSKGEPTTLNCKAEGRPTPTIEWYKDGERVETDKDDPRSHRMLLPSGSLFFLRIVHGRRSKPDEGSYVCVARNYLGEAVSRNASLEVALLRDDFRQNPTDVVVAAGEPAILECQPPRGHPEPTIYWKKDKVRIDDKEERISIRGGKLMISNTRKSDAGMYTCVGTNMVGERDSDPAELTVFERGGSGGSEPKSSDKTHTCPPCPAPEAAGAPSVFLFPPKPKDTLMISRTPEVTCVVVDVSHEDPEVKFNWYVDGVEVHNAKTKPREEQYNSTYRVVSVLTVLHQDWLNGKEYKCKVSNKALPAPIEKTISKAKGQPREPQVYTLPPSREEMTKNQVSLTCLVKGFYPSDIAVEWESNGQPENNYKTTPPVLDSDGSFFLYSKLTVDKSRWQQGNVFSCSVMHEALHNHYTQKSLSLSPG
notes: Labelled with Alexa Fluor 647 in the flow cytometry assay; also called ROBO-Fc 2.2; ROBO2-Fc 2.2-AF647
As to B1, the IC50 in assay [1] stood at 3 nM; in assay [2], 7 nM.

As usually defined, the IC50 is the concentration at which inhibition is half-maximal. A higher IC50 goes with a need for much substance.

The values above are taken from patent publication US20210214414A1 (Pfizer, published 2021).
